From paper PMC5428233, “Cross-beta nanostructures based on dinaphthylalanine Gd-conjugates loaded with doxorubicin” (Scientific Reports, 2017)
Where a SMILES comes first, the peptide text is derived from it. [ ]: non-standard residue; d: D form. The star is where a group is joined. DOTA = O=C(O)CN1CCN(CC(=O)O)CCN(CC(=O)*)CCN(CC(=O)O)CC1; 2Nal = N[C@@H](Cc1ccc2ccccc2c1)C(=O)O; PEG6 = NCCOCCOCCOCCOCCOCCOCCC(=O)O

How the values were obtained:
[1] = Self-aggregation by intrinsic naphthyl fluorescence (intensity decrease, excimer peak); assay type: physicochemical; conditions: water, room temperature, excitation 280 nm
Procedure: (§1) Self-organization of the peptide conjugates at the atomic level was further characterized also in solution with fluorescence, UV-Vis, ^1HNMR, CD and FTIR spectroscopies. […] From ispection of Fig. 1b, the typical emission spectrum of the 2-naphthyl group with three maxima at 325, 340 and 355 nm, respectively, can be detected.
(§2) The determination of CAC (critical aggregate concentration) values was determined as previously described[6] by the titration of the fluorescent probe ANS (8-anilino-1-naphthalene sulfonic acid ammonium salt)[28], [29] with the peptide conjugates[30].

[2] = Critical aggregation concentration (CAC) by ANS fluorescence titration; assay type: physicochemical; conditions: ANS 20 μM titrated with conjugate, emission at 470 nm, graphical break-point (Figure S3)
Procedure: as §1, §2

[3] = Congo Red spectroscopic (UV-Vis) assay for amyloid-like fibrils; assay type: physicochemical; conditions: 30 min at room temperature
Procedure: The high tendency of Gd-2Nal2 to self-aggregate in amyloid-like fibrillary nanostructures in solution was confirmed by Congo Red (CR) staining assay. CR is a well-known azoic dye, used as indicator of the occurrence of amyloid like fibrils. […] When incubated with fibrillary aggregates, its spectral profile changes and a shift of the CR band from 490 to 540 nm is expected. In our experiment, depicted in Fig. 3b, CR UV-Vis maximum undergoes a clear shift after incubation with Gd-2Nal2 at 2.5 mg/mL. Instead, any variation or a slight shift can be evidenced for CR incubated with 0.1 and 1.0 mg/mL, respectively.
Congo Red (CR) UV-Vis assay was carried out on aforementioned spectrophotometer as previously described. Briefly, 5, 50 and 125 μL of di-naphthylalanine stock solution (20 mg/mL) were added to a CR solution (12, 5 μM) prepared immediately before to use. The solutions containing peptide conjugate incubated with CR were left at room temperature for 30 min and then their UV-Vis spectra were recorded between 400 and 700 nm. The spectrum of CR alone at the same concentration was also recorded in the this spectral region.

[4] = Transmission electron microscopy of self-assembled conjugates; assay type: physicochemical; conditions: 5.0 mg/mL solution dried on grid, phosphotungstic acid stain
Procedure: Self-assembled peptide conjugate at 5.0 mg/mL, as free base or as metal complex, was initially characterized using TEM. […] The presence of a diffraction pattern both in SAXS and in WAXS is fingerprint of a hierarchical organization of the molecules in fibers from the atomic to the nanoscale.
TEM images were acquired by LaMest (Pozzuoli, Italy) with a FEI TECNAI G12 Spirit-Twin microscope (LaB6 source) endowed of a bottom mounted FEI Eagle-4k CCD camera (Eindhoven, The Netherlands), working at 120 kV.

[5] = Water proton relaxation measurements / NMRD profiles; assay type: physicochemical; conditions: 298 K
From the text: The paramagnetic relaxivity (r1p) of Gd (III) complexes is given by:1 r1p∝1/T1MH=Kf(τR) where K is a constant related to the strength of the dipolar interaction between the protons and the electronic magnetic moment, and τR is the correlation time associated with the reorientation of the Gd-H magnetic vector. This means that slowly moving high molecular weight systems are endowed with higher relaxivity than rapidly reorienting low molecular weight ones. In the case of self assembling Gd-containing systems, the extent of aggregation may be evaluated through the measure of the water proton longitudinal relaxation rate of its aqueous solution. In Fig. 8 are reported the NMRD (Nuclear Magnetic Resonance Dispersion) profiles of Gd-2Nal2 acquired at 21.5 MHz (0.5 T) and 298 K as a function of the complex concentration. […] At concentrations higher than 10–15 mg/mL the relaxivity assumes an almost stable value which corresponds to the system in the completely aggregated form. By analyzing the profile of the relaxivity data as a function of the applied field strength (NMRD - Nuclear Magnetic Relaxation Dispersion) it is possible to obtain an accurate determination of the reorientational correlation time (τR)[16], that is strictly related to the molecular size of the investigated system. NMRD profiles were acquired below (black circles) and above (white ones) the CAC values determined by ANS titration and ^1HNMR. […] Data were analyzed using the Solomon-Bloembergen-Morgan model, [18], considering one water molecule in the inner coordination sphere (q = 1) and fixing the exchange lifetime (τM) to a reliable value ([…]) on the basis of those previously reported for mono-amido DOTA derivatives[19]–[22]. The quantitative analysis of the NMRD profile of the aggregated form was not satisfactory when the simple inner- outer-sphere model was used, so the Lipari-Szabo approach was used for the description of the rotational dynamics. This model allows one to take into account the presence ofa certain degree of internal rotation superimposed on the overall tumbling motion, [24]. These two types ofmotion, a relatively fast local rotation of the coordination cage about the linker to the peptide scaffold superimposed on the global reorientation of the system, are characterized by different correlation times: τR ^l and τR ^g, respectively. The degree of correlation between global and local rotations is given by the parameter S^2, which takes values between 0 (completely independent motions) and 1 (entirely correlated motions).
Measure of R1 (longitudinal water proton relaxation rates) of Gd-2Nal2 were carried out on a Stelar Spinmaster spectrometer (Pavia, Italy) operating at 0.5 T which corresponds to 21.5 MHz Proton Larmor Frequency. R1 (1/T1) values were measured at 298 K by mean of the standard inversion-recovery technique. For the measure of the proton 1/T1 NMRD (Nuclear Magnetic Resonance Dispersion) profiles, a fast field-cycling Stelar relaxometer, operating over a continuum of magnetic field strengths from 0.00024 to 0.47 T (corresponding to 0.01–20 MHz proton Larmor frequencies) was used. The temperature was set at 298 K. The relaxometer is computer controlled and the absolute uncertainty is 1/T1 ± 1%. Additional data points were obtained on a Stelar Spinmaster spectrometer coupled to an electromagnet tunable at different Larmor Frequencies between 21.5 and 70 MHz. Experimental temperature control was obtained with an air-flow heater (Stelar VTC-91) endowed of a copper constantan thermocouple (uncertainty 0.1 °C). A previously reported relaxometric method[39] was used for the determination of the concentrations of the solutions used for the relaxometric characterization. The conventional Solomon-Bloembergen-Morgan theory was used for fitting of experimental data.

[6] = Doxorubicin loading and leakage by fluorescence spectroscopy; assay type: physicochemical
From the text: In order to prepare a potential theranostic agent, we assayed to incorporate cytotoxic doxorubicin (DOX) model drug in the Gd-2Nal2 paramagnetic nanostructures. DOX is an established anticancer agent clinically effective for the treatment of many cancertypes (breast and ovarian cancers). The incorporation and release of DOX into nanostructures was estimated by fluorescence spectroscopy (Figures S7 and S8). The addition of increasing amounts of the peptide conjugate to the DOX solution causes a progressive decrease of the fluorescence intensity of DOX (Figure S7a). […] By plotting the fluorescence intensity in the maximum at 590 nm as function of the Gd-2Nal2 concentration (Figure S7b) we estimated that gDrug/gPeptide is 0.028 (∼60 μg of DOX for ∼2.0 mg of peptide). […]
A DOX solution (1 · 10^−4 M) was placed in the cuvette and titrated with small amount of Gd-2Nal2 peptide conjugate at 50 mg/mL. The fluorescence of each sample was monitored on Jasco Model FP-750 spectroflurophotometer as above described. […] At the end of the titration the DOX filled Gd-2Nal2 aggregates were 10-fold diluted and the DOX fluorescence was monitored up to 72 h. […]
Figure S7: A) Fluorescence spectra of 1·10^-4 M DOX (58 μg/mL) solution alone and after the addition of growing amounts of Gd-2Nal2 peptide conjugate (from 0.25 to 10.0 mg/mL). […]

[7] = water
[8] = water, temperature below 5 °C

SMILES: NC(=O)[C@H](Cc1ccc2ccccc2c1)NC(=O)[C@H](Cc1ccc2ccccc2c1)NC(=O)CCOCCOCCOCCOCCOCCOCCNC(=O)CN1CCN(CC(=O)O)CCN(CC(=O)O)CCN(CC(=O)O)CC1 [Gd-2Nal2, Gd-DOTA-L6-(2Nal)2] ({DOTA-PEG6}-[2Nal]-[2Nal]-NH2)
- concentration at which self-aggregation begins (decrease of fluorescence intensity) [1]: ~75 µM
- concentration of appearance of the excimer peak (380-430 nm) / formation of stable aggregates [1]: ~1000 µg/mL
- concentration at which self-aggregation begins (decrease of fluorescence intensity) ([1]; 0.025-20.0 mg/mL range): ~100 µg/mL
- critical aggregation concentration (CAC) [2]: ~0.86 mg/mL
- shift of Congo Red UV-Vis maximum (490 to 540 nm expected for fibrils) ([3]; conjugate at 1.0 mg/mL): slight shift
- shift of Congo Red UV-Vis maximum (490 to 540 nm expected for fibrils) ([3]; conjugate at 2.5 mg/mL): clear shift
- supramolecular aggregation / morphology in TEM images [4]: long fibrillary nanostructures
- aggregation state from NMRD profile and τR ([5]; 1 mg/mL): monomeric state
- aggregation state from NMRD profile and τR ([5]; 25.0 mg/mL (high concentration)): formation of aggregates
- concentration above which relaxivity assumes an almost stable value (completely aggregated form) ([5]; 21.5 MHz (0.5 T), water): 10000 to 15000 µg/mL
- concentration at which self-aggregation starts (enhancement in relaxivity) ([5]; 21.5 MHz (0.5 T), water): ca. 1.0 mg/mL
- r1p (longitudinal proton relaxivity) ([5]; complex at 1 mg/mL, aqueous solution): 7.3 mM⁻¹ s⁻¹
- doxorubicin loading, gDrug/gPeptide ([6]; DOX 1·10^−4 M titrated with Gd-2Nal2 (50 mg/mL stock), fluorescence at 590 nm, excitation 480 nm): 0.028
- DOX leakage (drug released) from the peptide aggregate ([6]; DOX filled aggregates 10-fold diluted, fluorescence monitored, after 72 h): ~6%
- solubility [7]: ≥ 50 mg/mL
- concentration at which fast hydrogel formation occurs [8]: 20000 µg/mL
